# Experimental data: US7572594B2, “Screening assays for agonists or antagonists or receptor activator of NF-κB” (Immunex Corporation, priority 2000, dated 2009)
# B1: wild type RANK: full-length human RANK, receptor activator of NF-κB (SEQ ID NO:2), expressed from vector or retrovirus (protein, listed as Homo sapiens)
# chain: MAPRARRRRPLFALLLLCALLARLQVALQIAPPCTSEKHYEHLGRCCNKCEPGKYMSSKCTTTSDSVCLPCGPDEYLDSWNEEDKCLLHKVCDTGKALVAVVAGNSTTPRRCACTAGYHWSQDCECCRRNTECAPGLGAQHPLQLNKDTVCKPCLAGYFSDAFSSTDKCRPWTNCTFLGKRVEHHGTEKSDAVCSSSLPARKPPNEPHVYLPGLIILLLFASVALVAAIIFGVCYRKKGKALTANLWHWINEACGRLSGDKESSGDSCVSTHTANFGQQGACEGVLLLTLEEKTFPEDMCYPDQGGVCQGTCVGGGPYAQGEDARMLSLVSKTEIEEDSFRQMPTEDEYMDRPSQPTDQLLFLTEPGSKSTPPFSEPLEVGENDSLSQCFTGTQSTVGSESCNCTEPLCRTDWTPMSSENYLQKEVDSGHCPHWAASPSPNWADVCTGCRNPPGEDCEPLVGSPKRGPLPQCAYGMGLPPEEEASRTEARDQPEDGADGRLPSSARAGAGSGSSPGGQSPASGNVTGNSNSTFISSGQVMNFKGDIIVVYVSQTSQEGAAAAAEPMGRPVQEETLARRDSFAGNGPRFPDPCGGPEGLREPEKASRPVQEQGGAKA
# What was measured:
# [1] = system: murine MMP-9 promoter (SEQ ID NO:11); test: murine MMP-9 promoter/luciferase reporter in 293/EBNA cells; assay type: cell-based; conditions: 40 ng reporter
# From the text: (§1) This example describes the activation of the TRAP promoter. A 2.6 kb DNA fragment containing the human TRAP promoter was obtained by digesting the plasmid pBL2HT2.2 with the restriction endonuclease ApaI. The cloning of the human TRAP gene 5′ region and the construction of pBL2HT2.2 are fully described in Reddy et al. (Bone 16:587-593 (1995)). A DNA containing the mouse TRAP promoter (SEQ ID NO:12) and a DNA containing the murine MMP-9 promoter (SEQ ID NO:11) also were used for these experiments. DNAs containing the promoters were fused to the luciferase reporter gene. These promoter/reporter constructs were transfected into human 293/EBNA cells along with various combinations of expression vectors that encoded full-length human RANK (SEQ ID NO:2) and human full-length RANK-L proteins (SEQ ID NO:6).
# For the murine MMP-9 promoter experiments, 4.1 kb of the murine MMP-9 promoter (SEQ ID NO:11) were fused to a luciferase gene and transfected (40 ng) into 293/EBNA cells. Transfection of either RANK (SEQ ID NO:2) alone or the combination of RANK (SEQ ID NO:2) plus RANK-L (SEQ ID NO:6) increased reporter expression 2.5-fold.
# [2] = system: primary hematopoietic cells from the RANK −/− mice; test: F-actin ring formation, phalloidin staining; assay type: cell-based, mouse; conditions: 5 days in 40 ng/ml CSF-1 and 200 ng/ml mRANK-L
# From the text: To detect F-actin rings, cells are fixed, such as by exposure to 3% paraformaldehyde, and visualized by staining cells with a fluorescent probe that binds specifically with actin. A suitable fluorescent tag is phalloidin, which can be obtained from Molecular Probes, Eugene, Oreg. The fluorescent signal is detected, for example, using a standard fluorescent microscope, and the number of cells having F-actin rings is visually quantified. An F-actin ring is identified as a continuous ring of F-actin at the periphery of a cell, and these distinct structures are visible through a microscope.
# A procedure to detect F-actin rings was carried out as follows. Primary hematopoietic cells from the RANK −/− mice were infected with retroviral constructs encoding either the full-length human RANK cDNA or the RANK/TRAF6 binding mutant (RANK Δ340-421). Cells were cultured on LabTek Chamber slides with #1 borosilicate coverglasses (Nalge/Nunc). After incubation for 5 days in MEM containing 10% fetal bovine serum containing 40 ng/ml CSF-1 and 200 ng/ml mRANK-L. The media was aspirated, washed twice in PBS and then fixed in a solution of 3% paraformaldehyde for 10 minutes, followed by quenching in 50 mM NH4Cl. […] The fluorescent signal was detected using a standard fluorescent microscope, and F-actin rings were identified as continuous rings of F-actin at the periphery of individual cells.
# RANK = test: radioimmune assay of reporter surface expression in 293/EBNA cells; assay type: cell-based; conditions: 48 hours after transfection
# Method: Additionally, surface expression of human IL-2α receptor can be analyzed using a radioactive antibody against IL-2α receptor. For the mIL-4R-specific radioimmune assay, mouse anti-human IL-2α monoclonal antibody reactive with mIL-4R was labeled with ^125I via a Chloramine T conjugation method; the resulting specific activity is typically […]. After 48 hours, cells transfected with pGL2-MMP-9/human IL-2 receptor were washed once with media (DMEM, 12 5% FBS). Non-specific binding sites were blocked by the addition of pre-warmed binding media containing 5% non-fat dry milk and incubation at 37° C./5% CO2 in a tissue culture incubator for one hour. The blocking media was decanted and binding buffer containing ^125I anti-mIL-4R (clone M1; rat IgG1) was added to the cells and incubated with rocking at room temperature for 1 hour. After incubation of the cells with the radio-labeled antibody, cells were washed extensively with binding buffer (2 X) and twice with phosphate-buffered saline (PBS). Cells were lysed in 1 ml of 0.5M NaOH, and total radioactivity measured with a gamma counter.
# [3] = system: mouse TRAP promoter (SEQ ID NO:12); test: mouse TRAP promoter/luciferase reporter in 293/EBNA cells; assay type: cell-based; conditions: 24 hours after transfection, 0.4 ng RANK vector, 20 ng RANK-L vector
# From the text: as §1
# For the mouse TRAP promoter (SEQ ID NO:12), 2×10^5 293/EBNA cells were transfected using DEAE/dextran with 40 ng of a plasmid encoding approximately 2 kb of the mouse TRAP promoter (SEQ ID NO:12) fused to a luciferase reporter, 20 ng of an expression vector encoding RANK-L (SEQ ID NO:6), and 0.4 ng of an expression vector encoding RANK (SEQ ID NO:2). Twenty four hours after transfection, luciferase activity in cell lysates was measured according to manufacturer's instructions (Promega) using a EG&G/Berthold luminometer. […]
molecule,measurement,setting,value
B1,increase of reporter expression (luciferase),[1],2.5 fold
same,cells with F-actin rings,[2],more than 50%
same,"transcriptional activation, reporter detected on the cell surface",RANK,resulted in transcription of muIL-4R
same,increase of reporter expression (luciferase),[3],approximately 2 fold
